From article PMC9800568, “The permanently chaperone-active small heat shock protein Hsp17 from Caenorhabditis elegans exhibits topological separation of its N-terminal regions” (The Journal of Biological Chemistry, 2022) come the findings set out here.

Series [1] concerns the target Hsp17 (small heat shock protein Hsp17 from Caenorhabditis elegans) (C. elegans) (UniProt Q20660). The series is described as follows: cryo-EM structure; 2.5 mg/ml Hsp17, Titan Krios 300 kV, tetrahedral symmetry, pseudo-atomic model fitted.
Series [2] has the same target. Put plainly: SEC; SEC-HPLC, Superdex 200 Increase 10/300 GL, PBS, 0.5 ml/min, room temperature, 50 μl of 50 μM protein.
Series [3] deals with the molecule itself. The description is as above.

Usually stoichiometry N stands for the number of molecules, sites or subunits per partner or assembly. “Hsp17 (small heat shock protein Hsp17 from Caenorhabditis elegans) (from UniProt Q20660 1-149) (natural protein)”: the stoichiometry N in series [1] and in series [2] was 24 throughout.

B1: Hsp17ΔNTR (Hsp17 variant lacking the N-terminal region) (domain or fragment, C. elegans)
chain: MGDAIDVVNNDQEYNVSVDVSQFEPEELKVNIVDNQLIIEGKHNEKTDKYGQVERHFVRKYNLPTGVRPEQIKSELSNNGVLTVKYEKNQEQQPKSIPITIVPKRN
notes: Hsp17, C. elegans, from aa position 45 to the C-terminus (ACD and CTR); The full-length protein is modelled to residue 148; also called NTR-truncated variant; truncation variant; source: E. coli BL21 (DE3), tag-free, purified (Sepharose Q FF, Superdex 75 pg)
As to B1, the “stoichiometry N” value in series [3] was determined as 3.5 monomers.
